Reference: patent US20200399712A1, “COMPOSITIONS AND METHODS FOR THE DIAGNOSIS AND DETECTION OF TUMORS AND CANCER PROGNOSIS” (priority 2018, published 2020)

Legend:
[1] = test system: E2, E4, E5 expression head and neck cell line; assay: Growth of E2, E4, E5 expressing head and neck cell line with FGFR inhibitor; assay type: cell-based
HPV16 DNA [2] = assay: CLIA test for HPV16, performance characteristics in plasma
Excerpt: (§1) These primer/probe sets were adapted for development of a CLIA test for HPV16 DNA detection in plasma and salivary rinses (Table 2). Test performance was improved, so that analytical sensitivity in salivary rinse spike in assays ranges from 2.5-5.0 DNA copies/mL with 100% specificity for the three primer/probe sets that are now part of the component assay, resulting in a five-fold improvement in analytic sensitivity that is in the range of sensitivity found in sequence based liquid biopsy methods (FIG. 23, Table 2). Additionally, the assays can be used quantitatively, with measuring ranges between 2.0 log10-7.0 log10 copies/mL.

HPV-16 [3] = assay: qPCR on 20 ng DNA from saliva samples of HPV-HNSCC patients
HPV-16 genome = assay: qPCR sensitivity against HPV-16 copy number (known-copy HPV-16 DNA among 10 ng normal human DNA); conditions: for reaction under 30 copies of HPV-16 genome: among 10 ng normal DNA, triplicate qPCR
HPV-16 [4] = assay: qPCR sensitivity against HPV-HNSCC tumor samples diluted among 10 ng normal human DNA
HPV DNA = assay: CLIA HPV test pilot study on saliva rinse samples from HPV-positive HNSCC patients and non-cancer controls; design: species or system HPV16; HPV16 DNA measured by CLIA HPV test: unit not given here
Description: As a final validation, Applicants a small pilot study was performed on a blinded set of saliva rinse samples from 28 patients with HPV-positive HNSCC and 15 salivary rinses from non-cancer controls. […] The sensitivity increased to 96% when all three sets were used (Table 3).

HPV16 DNA [5] = assay: CLIA test for HPV16, performance characteristics in salivary rinse
Excerpt: as §1

[6] = first template ('... HPV16', word is an image)
[7] = second template (name is an image)
[8] = samples tested 3 times, 10 ng DNA from healthy individual
[9] = tumor DNA dilution, fraction of 32 samples

AZD4547
growth effect induced by E2, E4, E5 [1]: reversed the growth effect induced by E2, E4, E5

B1: HR E5L2-4: primer/probe set for junction between E5 and L2, SEQ ID NO: 55-57 (same as SEQ ID NO: 4-6) (nucleic acid)
DNA 1: GCAAAACGCACAAAACGTGC
DNA 2: GACATGTACCTGCCTGTTTGC
DNA 3: CGGCTACCCAACTTTATAAAACA
modifications: chemistry not given here
Accuracy - Plasma Blind Panel, Negative % Agreement (HPV16 DNA [2]): 100%
Accuracy - Plasma Blind Panel, Positive % Agreement (HPV16 DNA [2]): 100%
Accuracy - Plasma Blind Panel, Total % Agreement (HPV16 DNA [2]): 100%
Measuring Range - Plasma (HPV16 DNA [2]; first template ('... HPV16')): 2.0-8.5 log10 log10 copies/mL
Limit of Detection - Plasma (HPV16 DNA [2]; [6]): 1.5 copies/mL
Limit of Detection - Plasma (HPV16 DNA [2]; [7]): 20 copies/mL
Measuring Range - Plasma (HPV16 DNA [2]; [7]): 2.0-6.5 log10 log10 copies/mL
sensitivity of detection from saliva 20 ng DNA samples (HPV-16 [3]; 28 HPV-HNSCC saliva samples): 46.4%
copy numbers detected (standard curve analysis) (HPV-16 [3]; compared among 4 primer-probe sets): highest
reaction under 30 copies of HPV-16 genome (HPV-16 genome): consistently amplified
reaction under 30 copies of HPV-16 genome (HPV-16 genome; listed as Max-10): react consistently
number of reactions against 10 HPV-16 copies (HPV-16 genome; [8]): one
number of reactions under 30 HPV-16 copies (HPV-16 genome; [8]): 3 reactions
sensitivity under 100 cells (HPV-16 [4]; 32 HPV-HNSCC tumor samples): 93.8%
sensitivity under single cells (HPV-16 [4]; 32 HPV-HNSCC tumor samples, 6.6 pg DNA): 15.6%
sensitivity under 10 cells (HPV-16 [4]; 32 HPV-HNSCC tumor samples, 66 pg DNA): 50.0%
Threshold of tumor cell numbers for HPV-16 detection (HPV-16 [4]; Sample # 1): 30.0 tumor cells
Threshold of tumor cell numbers for HPV-16 detection (HPV-16 [4]; Sample # 2): 30.0 tumor cells
Threshold of tumor cell numbers for HPV-16 detection (HPV-16 [4]; Sample # 3): 150.0 tumor cells
Threshold of tumor cell numbers for HPV-16 detection (HPV-16 [4]; Sample # 4): 60.0 tumor cells
Threshold of tumor cell numbers for HPV-16 detection (HPV-16 [4]; Sample # 5): 150.0 tumor cells
Threshold of tumor cell numbers for HPV-16 detection (HPV-16 [4]; Sample # 6): 30.0 tumor cells
Threshold of tumor cell numbers for HPV-16 detection (HPV-16 [4]; Sample # 7): 30.0 tumor cells
Threshold of tumor cell numbers for HPV-16 detection (HPV-16 [4]; Sample # 8): 15.0 tumor cells
Threshold of tumor cell numbers for HPV-16 detection (HPV-16 [4]; Sample # 9): 30.0 tumor cells
Threshold of tumor cell numbers for HPV-16 detection (HPV-16 [4]; Sample # 10): 30.0 tumor cells
Threshold of tumor cell numbers for HPV-16 detection (HPV-16 [4]; Sample # 11): 6.0 tumor cells
Threshold of tumor cell numbers for HPV-16 detection (HPV-16 [4]; Sample # 12): 30.0 tumor cells
Threshold of tumor cell numbers for HPV-16 detection (HPV-16 [4]; Sample # 13): 30.0 tumor cells
Threshold of tumor cell numbers for HPV-16 detection (HPV-16 [4]; Sample # 14): 30.0 tumor cells
Threshold of tumor cell numbers for HPV-16 detection (HPV-16 [4]; Sample # 15): 30.0 tumor cells
Threshold of tumor cell numbers for HPV-16 detection (HPV-16 [4]; Sample # 16): 6.0 tumor cells
Threshold of tumor cell numbers for HPV-16 detection (HPV-16 [4]; Sample # 17): 6.0 tumor cells
Threshold of tumor cell numbers for HPV-16 detection (HPV-16 [4]; Sample # 18): 6.0 tumor cells
Threshold of tumor cell numbers for HPV-16 detection (HPV-16 [4]; Sample # 19): 1.2 tumor cells
Threshold of tumor cell numbers for HPV-16 detection (HPV-16 [4]; Sample # 20): 1.2 tumor cells
Threshold of tumor cell numbers for HPV-16 detection (HPV-16 [4]; Sample # 21): 6.0 tumor cells
Threshold of tumor cell numbers for HPV-16 detection (HPV-16 [4]; Sample # 22): 0.3 tumor cells
Threshold of tumor cell numbers for HPV-16 detection (HPV-16 [4]; Sample # 23): 1.2 tumor cells
Threshold of tumor cell numbers for HPV-16 detection (HPV-16 [4]; Sample # 24): 1.2 tumor cells
Threshold of tumor cell numbers for HPV-16 detection (HPV-16 [4]; Sample # 25): 0.6 tumor cells
Threshold of tumor cell numbers for HPV-16 detection (HPV-16 [4]; Sample # 26): 0.6 tumor cells
Threshold of tumor cell numbers for HPV-16 detection (HPV-16 [4]; Sample # 27): 0.6 tumor cells
Threshold of tumor cell numbers for HPV-16 detection (HPV-16 [4]; Sample # 28): 1.0 tumor cells
Threshold of tumor cell numbers for HPV-16 detection (HPV-16 [4]; Sample # 29): 3.0 tumor cells
Threshold of tumor cell numbers for HPV-16 detection (HPV-16 [4]; Sample # 30): 30.0 tumor cells
Threshold of tumor cell numbers for HPV-16 detection (HPV-16 [4]; Sample # 31): 0.6 tumor cells
Threshold of tumor cell numbers for HPV-16 detection (HPV-16 [4]; Sample # 32): 30.0 tumor cells
Sensitivity, 1 cell (HPV-16 [4]; [9]): 0.156
Sensitivity, 3 cells (HPV-16 [4]; [9]): 0.313
Sensitivity, 10 cells (HPV-16 [4]; [9]): 0.500
Sensitivity, 30 cells (HPV-16 [4]; [9]): 0.844
Sensitivity, 100 cells (HPV-16 [4]; [9]): 0.938
sensitivity for the detection of HPV DNA in saliva rinse samples (HPV DNA; 28 patients with HPV-positive HNSCC): 71%
HPV16 DNA measured by CLIA HPV test (HPV DNA; saliva sample from HPV-HNSCC patient # 1): 322000
HPV16 DNA measured by CLIA HPV test (HPV DNA; saliva sample from HPV-HNSCC patient # 2): 52500
HPV16 DNA measured by CLIA HPV test (HPV DNA; saliva sample from HPV-HNSCC patient # 3): 25800
HPV16 DNA measured by CLIA HPV test (HPV DNA; saliva sample from HPV-HNSCC patient # 4): 33200
HPV16 DNA measured by CLIA HPV test (HPV DNA; saliva sample from HPV-HNSCC patient # 7): 9670
HPV16 DNA measured by CLIA HPV test (HPV DNA; saliva sample from HPV-HNSCC patient # 8): 2510
HPV16 DNA measured by CLIA HPV test (HPV DNA; saliva sample from HPV-HNSCC patient # 9): 1590
HPV16 DNA measured by CLIA HPV test (HPV DNA; saliva sample from HPV-HNSCC patient # 12): 86.7
HPV16 DNA measured by CLIA HPV test (HPV DNA; saliva sample from HPV-HNSCC patient # 13): 53.1
HPV16 DNA measured by CLIA HPV test (HPV DNA; saliva sample from HPV-HNSCC patient # 14): 31.1
HPV16 DNA measured by CLIA HPV test (HPV DNA; saliva sample from HPV-HNSCC patient # 15): 49.7
HPV16 DNA measured by CLIA HPV test (HPV DNA; saliva sample from HPV-HNSCC patient # 16): 41.3
HPV16 DNA measured by CLIA HPV test (HPV DNA; saliva sample from HPV-HNSCC patient # 17): 15.8
HPV16 DNA measured by CLIA HPV test (HPV DNA; saliva sample from HPV-HNSCC patient # 18): 2.61
HPV16 DNA measured by CLIA HPV test (HPV DNA; saliva sample from HPV-HNSCC patient # 19): 26.9
HPV16 DNA measured by CLIA HPV test (HPV DNA; saliva sample from HPV-HNSCC patient # 20): 13.4
HPV16 DNA measured by CLIA HPV test (HPV DNA; saliva sample from HPV-HNSCC patient # 21): 6.54
HPV16 DNA measured by CLIA HPV test (HPV DNA; saliva sample from HPV-HNSCC patient # 22): 1.16
HPV16 DNA measured by CLIA HPV test (HPV DNA; saliva sample from HPV-HNSCC patient # 26): 2.15
HPV16 DNA measured by CLIA HPV test (HPV DNA; saliva sample from HPV-HNSCC patient # 27): 1.19
Measuring Range - Salivary Rinse (HPV16 DNA [5]; first template ('... HPV16')): 2.0-8.5log10 log10 copies/mL
Limit of Detection - Salivary rinse (HPV16 DNA [5]; [6]): 2 copies/mL
Limit of Detection - Salivary rinse (HPV16 DNA [5]; [7]): 19 copies/mL
Measuring Range - Salivary Rinse (HPV16 DNA [5]; [7]): 2.0-6.5 log10 log10 copies/mL
